In experiment [1] the test system is NPK1-dependent activation of a MAPK and repression of the GH3 promoter. The experiment in a line: Transient expression in maize protoplasts: reversal of NPK1 effects. In kind it is cell-based. Particulars: transfected maize protoplasts, 35S CaMV promoter. The text has this: A phosphatase domain containing a fragment of the mouse MKP-1 (amino acids 1-314 (SEQ ID NO.: 11); Sun et al., Cell 75: 487-493, 1993) was cloned into the plant expression vector pART7. This expression plasmid was then used for transient expression of MKP-1 in maize protoplasts.

For another experiment, the system named is tobacco cells. The experiment in a line: Auxin effect on division and differentiation of transfected tobacco cells. In kind it is cell-based. As for the experimental part: To examine the effects of auxin on cell division and differentiation of cells expressing MKP-1 SEQ ID NO.:10; tobacco cells transfected with the MKP-1 transgene expressed under the control of the 35S CaMV promoter were cultured on a medium containing 0.1 μM or 1 μM NAA. […] Since prevention of MAPK activation by MKP-1 can render plant cells less sensitive to auxin, activation of some MAPK pathways may be crucial in auxin stimulated plant cell proliferation.

Another experiment deals with tobacco cultivar SR1. The experiment in a line: Phenotype of transgenic tobacco SR1 plants expressing the transgene (35S CaMV promoter). In kind it is in vivo. An excerpt: (§1) Next, we examined the phenotypic modifications of transgenic plants expressing MKP-1 under the control of the 35S CaMV promoter. For these experiments, we introduced the MKP-1 construct into tobacco cultivar SR1 and Arabidopsis plants according to standard Agrobacterium-mediated gene transfer methods. Initiation of flowering in the day-neutral tobacco cultivar SR1 is mainly dependent on the number of leaves found on the plants. These tobacco plants, in general, remain in the vegetative state until approximately twenty leaves have developed. […] Some transformants even initiated flowers after only a few small leaves had developed (FIG. 4). Despite early flowering, these plants were fertile. […] Similar results were obtained when MKP-1 was expressed in Arabidopsis plants.

Another experiment deals with Arabidopsis plants. In words: Phenotype of transgenic Arabidopsis plants expressing the transgene (35S CaMV promoter). In kind it is in vivo.
From the text: as §1

B1: MKP-1: dual-specificity MAPK phosphatase; fragment of mouse MKP-1 (amino acids 1-314) expressed from a transgene under the 35S CaMV promoter (protein, UniProt P28563 1-314, looked up, fragment)
chain: MVMEVGILDAGGLRALLREGAAQCLLLDCRSFFAFNAGHIAGSVNVRFSTIVRRRAKGAMGLEHIVPNAELRGRLLAGAYHAVVLLDERSASLDGAKRDGTLALAAGALCREARSTQVFFLQGGYEAFSASCPELCSKQSTPTGLSLPLSTSVPDSAESGCSSCSTPLYDQGGPVEILSFLYLGSAYHASRKDMLDALGITALINVSANCPNHFEGHYQYKSIPVEDNHKADISSWFNEAIDFIDSIKDAGGRVFVHCQAGISRSATICLAYLMRTNRVKLDEAFEFVKQRRSIISPNFSFMGQLLQFESQVLA
As to B1, in experiment [1], the “effect on NPK1-dependent activation of a MAPK” value is given as “complete elimination” and the “effect on repression of the auxin-inducibility of the GH3 promoter by NPK1” value is reported as “complete elimination”. Also, the “cell division under low auxin” value in the experiment with tobacco cells (0.1 μM NAA) is “failed to divide”. For the same molecule, the “cell phenotype under high auxin” value in the experiment on tobacco cells (1 μM NAA) is “remained green and formed tight calli with differentiated shoot primordia”. Further, the “level of auxin required to initiate cell division” value in the experiment with tobacco cells (constant concentration of cytokinin, compared with cells transfected with vector alone) is recorded as 1 μM NAA. Further, the “number of leaves before flowering compared to wild type” value with tobacco cultivar SR1 (MKP-1 transformed SR1 tobacco, FIG. 2) is “about half”. Besides, the fertility entry in the experiment on tobacco cultivar SR1 (early flowering transformants) is given as “fertile”. Moreover, in the experiment with tobacco cultivar SR1 (in vivo), the “reduction in the vegetative life span of the plant” value was roughly 50%. Also, the initiation of flowering result with tobacco cultivar SR1 (primary transgenic SR1 lines vs control plants) is “initiated flowering earlier than control plants”. Moreover, in the experiment on tobacco cultivar SR1 (transgenic vs wild-type plants), the “flower and seed production” value is “more flowers and seeds than the wild-type plants”. Also, in the experiment with Arabidopsis plants (in vivo), the “fertility of reproductive organs” value was “fertile”. In the experiment with Arabidopsis plants (progenies of several Arabidopsis lines), the inflorescence initiation entry is recorded as “initiate the inflorescence stem without producing any rosette leaves”.

Source of the values: patent US6548743B1, “Transgenic plants expressing a dual-specificity MAPK phosphatase and uses thereof” (The General Hospital Corporation, priority 1998, dated 2003).
